In the supplement of paper PMC9112550, “Optimization of the antimicrobial peptide Bac7 by deep mutational scanning” (BMC Biology, 2022):

System: Escherichia coli TOP10
Assay: shrunken log2 fold change of peptide-encoding DNA abundance (4.5 h post-induction vs induction); higher = less antimicrobial activity (less host growth inhibition)
Conditions: time post-induction: 4.5 h; library: site-saturation at positions 5, 18, 19, 20
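Note: peptides expressed intracellularly from a pBAD plasmid library in pooled LB shake-flask culture, induced with 0.3% L-arabinose, DNA abundance read by NGS, three biological replicates, DESeq2 with apeglm shrinkage.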

Sequence	shrunken log2 fold change
RRIRGRPPRLPRPRPRPPETPRP	1.24
RRIRARPPRLPRPRPRPKDPPRP	0.211
RRIRARPPRLPRPRPRPHVCPRP	-0.297
RRIRMRPPRLPRPRPRPWISPRP	0.00707
RRIRQRPPRLPRPRPRPQPGPRP	0.0446
RRIRYRPPRLPRPRPRPSITPRP	-0.857
RRIRGRPPRLPRPRPRPRCQPRP	0.835
RRIRMRPPRLPRPRPRPGTNPRP	1.55
RRIRSRPPRLPRPRPRPYERPRP	-0.0323
RRIRARPPRLPRPRPRPRSGPRP	0.537
RRIRQRPPRLPRPRPRPKCDPRP	0.151
RRIRVRPPRLPRPRPRPCDQPRP	-0.0149
RRIRGRPPRLPRPRPRPVQWPRP	0.171
RRIRSRPPRLPRPRPRPQLVPRP	0.0331
RRIRQRPPRLPRPRPRPMVYPRP	0.017
RRIRERPPRLPRPRPRPRWNPRP	-0.0995
RRIRYRPPRLPRPRPRPICAPRP	-0.211
RRIRRRPPRLPRPRPRPRKPPRP	0.153
RRIRCRPPRLPRPRPRPRFPPRP	-0.0867
RRIRYRPPRLPRPRPRPNEFPRP	-0.498
RRIRLRPPRLPRPRPRPNLKPRP	-0.367
RRIRRRPPRLPRPRPRPWRFPRP	0.012

Sequence	shrunken log2 fold change
RRIRKRPPRLPRPRPRPNLDPRP	-0.0443
RRIRTRPPRLPRPRPRPNIEPRP	0.105
RRIRYRPPRLPRPRPRPMARPRP	-0.0425
RRIRNRPPRLPRPRPRPRQSPRP	0.112
RRIRRRPPRLPRPRPRPGIGPRP	-0.00887
RRIRERPPRLPRPRPRPQYQPRP	-1.12
RRIRQRPPRLPRPRPRPHFRPRP	0.092
RRIRDRPPRLPRPRPRPEGWPRP	1.78
RRIRTRPPRLPRPRPRPLTGPRP	-0.0139
RRIRQRPPRLPRPRPRPQHHPRP	-0.527
RRIRDRPPRLPRPRPRPSFAPRP	0.263
RRIRPRPPRLPRPRPRPRYCPRP	-0.191
RRIRGRPPRLPRPRPRPIGTPRP	0.334
RRIRCRPPRLPRPRPRPRQGPRP	0.436
RRIRYRPPRLPRPRPRPTKTPRP	-0.0705
RRIRARPPRLPRPRPRPHPKPRP	0.508
RRIRPRPPRLPRPRPRPSWKPRP	0.105
RRIRMRPPRLPRPRPRPNCDPRP	0.194
RRIRNRPPRLPRPRPRPQQMPRP	0.0512
RRIRLRPPRLPRPRPRPLTAPRP	-0.0325
RRIRFRPPRLPRPRPRPPRGPRP	0.685
RRIRHRPPRLPRPRPRPSQMPRP	0.0205

Sequence	shrunken log2 fold change
RRIRRRPPRLPRPRPRPHFTPRP	-0.0671
RRIRTRPPRLPRPRPRPARKPRP	0.179
RRIRNRPPRLPRPRPRPTWLPRP	0.195
RRIRFRPPRLPRPRPRPKPLPRP	0.433
RRIRHRPPRLPRPRPRPQTCPRP	-0.653
RRIRARPPRLPRPRPRPNNQPRP	-0.309
RRIRPRPPRLPRPRPRPGTWPRP	0.0893
RRIRHRPPRLPRPRPRPNARPRP	-0.0163
RRIRDRPPRLPRPRPRPWNKPRP	-0.117
RRIRMRPPRLPRPRPRPARDPRP	1.65
RRIRIRPPRLPRPRPRPKRPPRP	0.449
RRIRLRPPRLPRPRPRPKDYPRP	-0.0534
RRIRKRPPRLPRPRPRPTPAPRP	1.41
RRIRFRPPRLPRPRPRPWTLPRP	-0.259
RRIRTRPPRLPRPRPRPMQFPRP	-0.0258
RRIRIRPPRLPRPRPRPTNRPRP	-0.326
RRIRVRPPRLPRPRPRPYGQPRP	-0.0728
RRIRYRPPRLPRPRPRPMCAPRP	-0.208
RRIRMRPPRLPRPRPRPFTRPRP	-0.0636
RRIRERPPRLPRPRPRPVICPRP	-0.72
RRIRKRPPRLPRPRPRPEIGPRP	0.191
RRIRMRPPRLPRPRPRPYGFPRP	-0.00952

Sequence	shrunken log2 fold change
RRIRDRPPRLPRPRPRPPLHPRP	0.177
RRIRYRPPRLPRPRPRPHQVPRP	-0.208
RRIRHRPPRLPRPRPRPEQMPRP	0.023
RRIRLRPPRLPRPRPRPFGYPRP	-0.291
RRIRFRPPRLPRPRPRPLCVPRP	-0.394
RRIRFRPPRLPRPRPRPIGGPRP	0.14
RRIRKRPPRLPRPRPRPIHVPRP	-0.0353
RRIRCRPPRLPRPRPRPRMLPRP	0.0183
RRIRARPPRLPRPRPRPGTAPRP	0.493
RRIRPRPPRLPRPRPRPMKAPRP	0.0531
RRIRMRPPRLPRPRPRPIFRPRP	0.185
RRIRKRPPRLPRPRPRPTGLPRP	0.223
RRIRNRPPRLPRPRPRPGHCPRP	-0.062
RRIRYRPPRLPRPRPRPHYWPRP	-0.582
RRIRNRPPRLPRPRPRPYKDPRP	0.0141
RRIRHRPPRLPRPRPRPMPGPRP	-0.0235
RRIRSRPPRLPRPRPRPWVLPRP	2.29
RRIRLRPPRLPRPRPRPIQVPRP	-0.072
RRIRCRPPRLPRPRPRPRTHPRP	-0.168
RRIRTRPPRLPRPRPRPEPEPRP	0.323
RRIRCRPPRLPRPRPRPDTDPRP	-0.0352
RRIRYRPPRLPRPRPRPDFFPRP	0.373

Sequence	shrunken log2 fold change
RRIRERPPRLPRPRPRPTKFPRP	-0.364
RRIRCRPPRLPRPRPRPTSQPRP	0.00813
RRIRRRPPRLPRPRPRPVLAPRP	0.83
RRIRRRPPRLPRPRPRPFRCPRP	-0.15
RRIRFRPPRLPRPRPRPFEKPRP	-0.0749
RRIRCRPPRLPRPRPRPFNSPRP	0.101
RRIRLRPPRLPRPRPRPHVEPRP	0.522
RRIRPRPPRLPRPRPRPSHQPRP	0.189
RRIRSRPPRLPRPRPRPPYWPRP	0.3
RRIRHRPPRLPRPRPRPRRPPRP	0.385
RRIRSRPPRLPRPRPRPRPPPRP	1.13
RRIRDRPPRLPRPRPRPRQYPRP	-0.332
RRIRPRPPRLPRPRPRPYCFPRP	-0.655
RRIRDRPPRLPRPRPRPWYNPRP	-0.102
RRIRQRPPRLPRPRPRPHRTPRP	-0.0723
RRIRYRPPRLPRPRPRPQFWPRP	0.313
RRIRKRPPRLPRPRPRPQYGPRP	-0.0781
RRIRYRPPRLPRPRPRPTITPRP	-0.665
RRIRNRPPRLPRPRPRPCSMPRP	-0.132
RRIRARPPRLPRPRPRPWGKPRP	0.0748
RRIRGRPPRLPRPRPRPVTWPRP	0.425
